Data on one molecule can be found in patent CN113278066A.

Read-outs that look alike come from different tables or passages of the source.

Test [1] deals with 非洲猪瘟病毒(ASFV)灭活抗原 (African swine fever virus).
Test [2] has the same target. This is another data set of the same source.
The target is the same in test [3]. The source holds these as a separate data set.

B1: 全猪源非洲猪瘟病毒单克隆抗体 κ-9B (antibody, V domains shown)
VH: EGKLVESGGGLVQPGGSLRLSCVGSGFDFINTYMNWVRQAPGKGLEWLATISTKGISTYYADSVKGRFTISKDNSQNTADLLMRILRIEDTVRYFCAMSDSGGRNCVAGDSSCPHYYGMNLWGPGVEVVVSS
VL: AIQLTQSPASLAASLGDTVSVTCRASQSISSYLAWYQQQPGKAPKLLIVAASTLQSGVPSRFKGSGSGTDFTLTISGLQAEDVATYYCFQRNSVPWTFGQGTKLELKA
On to B1, for which the values for the OD值 in test [1], in test [2] and in test [3] were 0.733 OD450nm, 1.91 OD450nm and 0.717 OD450nm, respectively.
